B1: CPEB3 Ribozyme (parent)
chain: UAACAGGGGGCCACAGCAGAAGCGUUCACGUCGCAGCCCCUGUCAGAUUCUGGUGAAUCUGCGAAUUCUGCUGUAUAUCUC

In the data set the parent is B1. As to the kind of experiment: self-cleavage, relative activity (ratio to wild type); higher = more cleavage; in vitro, sequencing. Summed up: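 Relative activity compares each variant's cleaved/total read fraction with that of the unmutated ribozyme. To get these fractions, barcoded CPEB3 ribozyme libraries from rounds of error-prone PCR were transcribed with T7 RNA polymerase for 5 hours at 37°C and then given 15 min of DNase I treatment before EDTA was added. The RNAs were reverse transcribed with template switching and sequenced on Illumina, and DNA sequencing linked barcodes to variants. A minimum of 5 reads applied, and three batches were averaged.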
Regarding U31A C59G, the self-cleavage was 0.19. As to U26G G53A, the self-cleavage stood at 0.24.

As to A13G C40A, the self-cleavage was determined as 0.21. The result for C34A U74G reads 0.29. The result for U1C G8U reads 0.39; that for A20G G42A, 0.53.

As to C11A A15G, the self-cleavage was determined as 0.21. The result for U48C A56U reads 0.38. The result for A3G A15C reads 0.95; that for A13G U54C, 0.92. The result for A20U C32A reads 0.18; that for C17G C32G, 0.23; that for C23A C38U, 0.49. Take G30A U80C: the self-cleavage amounted to 0.41. The result for A13G A18G reads 0.39.

Consider A21G U80C, for which the self-cleavage was determined as 0.74.

C14U U48A: the self-cleavage turned out to be 0.71. The result for A47G U49A reads 0.34. Next, A35U G36A: 0.19; A20U A57G: 0.23; G10C U60A: 0.12. Consider G8C A65G, for which the self-cleavage stood at 0.38. Regarding A18U C32U, the self-cleavage was 0.08. The result for A35U A56G reads 0.5. On to G36A U58C, for which the self-cleavage came out at 0.27. The result for U60G U80C reads 0.63.

Consider G6A A35C, for which the self-cleavage was 0.3. Next, U58C U67A: 0.28; A28C A77G: 0.51; G19A A21U: 0.1. The result for C37U A47G reads 0.58; that for A47G A75C, 0.98; that for U26C U60A, 0.39. Next, U25G U76C: 0.52. Take A13U G52C: the self-cleavage came out at 1.24. The result for G8A C79A reads 0.18; that for U60C G63U, 0.58. Consider U51C A57U, for which the self-cleavage was 0.44. The result for G10A G61C reads 0.09; that for U1G C27A, 0.43; that for G6U U72C, 0.37. Next, U1A U69C: 0.61. With U43A G63U, the self-cleavage was 1.26.

As for C14A A20G, the self-cleavage was 0.96. For A21G A77U, the self-cleavage turned out to be 0.71. On to G6U A20G, for which the self-cleavage came out at 0.26.

Regarding A15G G36U, the self-cleavage is 0.3.

U26A C32A: the self-cleavage is 0.16.

On to A57G C81G, for which the self-cleavage was determined as 1.2. Take U54G U69A: the self-cleavage was found to be 0.62. Next, C29U U76C: 0.52. The result for C23G U54G reads 0.26; that for U69C U80C, 0.52.

For A21G C68A, the self-cleavage was 0.17.

Take C4U C27U: the self-cleavage was found to be 0.56. The result for G70C U76A reads 0.11; that for C71G A77U, 0.13. The result for U1A U54G reads 0.76; that for A20U C38A, 0.1.

Regarding U72C U78A, the self-cleavage came out at 1.2. With U25A U58C, the self-cleavage was 0.29.

C12U C34A: the self-cleavage amounted to 0.68. The result for C27U U74C reads 0.36; that for A47C U67A, 0.23; that for C14U U66C, 0.8. For A2G A77U, the self-cleavage is 0.62. In the case of G33U U48C, the self-cleavage came to 0.08. Next, G33U U69C: 0.2; G8U G52U: 0.21. Next, C59U G63A: 0.86.

In the case of A13G C50A, the self-cleavage amounted to 0.76. A45C A75G: the self-cleavage was found to be 0.14. Next, U48C U60C: 0.26.

On to A20G C68A, for which the self-cleavage came out at 0.24. The result for U41G U78G reads 0.2; that for A75U U80A, 1.25. Next, C23U G30A: 0.12; U49A U60C: 0.32. Consider A28G A35U, for which the self-cleavage came to 0.27. In the case of U67A U69A, the self-cleavage stood at 0.3. As to A15U U26A, the self-cleavage came to 0.54. As to A5U U74A, the self-cleavage came out at 1.24. The result for A13G A28G reads 0.39. The result for A18U A77U reads 0.48; that for U31A U48G, 0.16; that for G10A U80G, 0.25. Next, A18G U60G: 0.14.

With G24A U49C, the self-cleavage is 0.21. The result for G6U reads 0.35; that for C32G U69C, 0.44. On to A3U U60C, for which the self-cleavage was determined as 0.59.

As to G8A A28G, the self-cleavage was 0.23. Regarding G36U U76C, the self-cleavage is 0.2. The result for C29A A77U reads 0.33; that for U41A A57G, 0.25; that for C12A A13C, 1.23.

On to G9U A75G, for which the self-cleavage is 0.13. As to G8U C14U, the self-cleavage turned out to be 0.06. For the variant C32U C68G, the self-cleavage was 0.13. Take C17A U80G: the self-cleavage was 0.23.

Regarding A45C U49C, the self-cleavage turned out to be 0.11. The result for G16C U31C reads 0.18; that for G33A U72A, 0.23; that for U31C G73A, 1.26. Next, G10A G46U: 0.17; A18C A45U: 0.1. On to G7A U51C, for which the self-cleavage worked out at 0.2. The result for A64U U76C reads 0.4; that for U31C A65G, 0.35; that for U25C U58A, 0.29. The result for G70U U72C reads 0.42. The result for U26C G53A reads 0.51; that for G16U C39U, 0.46; that for A28G U67A, 0.27. As for A18U C34U, the self-cleavage amounted to 0.25. Next, A5G U54C: 0.64; U67C A75U: 0.26. The result for A13C A56U reads 0.48; that for U72G U76A, 0.54; that for C11G A20U, 0.12. Next, C40G U48C: 0.13.

Turning to A2C U66C, the self-cleavage stood at 0.4. Take A45U U54G: the self-cleavage was determined as 0.21.

A3U A65G: the self-cleavage turned out to be 0.54.

A2G G42U: the self-cleavage amounted to 0.55. Next, U31A C34G: 0.2. As for U51C U54C, the self-cleavage amounted to 1.07. The result for U72A U76C reads 0.97.

Consider U43C U72C, for which the self-cleavage is 0.76.

Take A21U G70C: the self-cleavage amounted to 0.05. Turning to A75U U78C, the self-cleavage was 1.15. The result for C27A U76C reads 0.21; that for C4U U58C, 1.06; that for A35U U58C, 0.27. For C37U G63A, the self-cleavage is 0.54. For the variant U66A U74A, the self-cleavage was determined as 0.85. Next, A18G C71U: 0.28. As for G46C U78C, the self-cleavage amounted to 0.21. As for A18U C23U, the self-cleavage amounted to 0.23. The result for C12U U66C reads 0.71. The result for U48C U54A reads 0.71; that for G73A U78C, 1.32. The result for G16U U26A reads 0.26; that for C17U U26A, 0.6; that for G30U U31C, 0.43. Take G33U: the self-cleavage came out at 0.24. Next, A15U U74C: 0.97; G7C G9U: 0.36; U69G U74G: 0.97. The result for C4U G10A reads 0.63; that for A13G C34G, 0.17. For A35G U72A, the self-cleavage is 1.22. Regarding A13U C50U, the self-cleavage came to 0.89. In the case of U60A U69A, the self-cleavage is 0.33. The result for C50A C71U reads 0.55; that for U41C U72C, 1.11. Next, G16C A21U: 0.1. Next, G6U G9A: 0.4.

As for G10A C23A, the self-cleavage amounted to 0.06. The result for G6A U54C reads 0.52; that for G9U U43A, 0.52.

As for A20G C71G, the self-cleavage amounted to 0.14. As to A18G C79G, the self-cleavage amounted to 0.73.

Turning to U51C C62A, the self-cleavage is 0.31. Next, A18U U76A: 0.36; U31C A75C: 1.1.

As for U49G A77G, the self-cleavage was determined as 0.39.
